Source: US20140206609A1 (Sanofi, published 2014)
*1 amine or outer side, *2 acyl side, *3 side chain or, on linkers, in order; H or OH if unused. Where no end group is shown, it is not given here. Side-chain parts run from the residue outwards. [ ]: non-standard residue; d: D form. The star is where a group is joined. γGlu = O=C(O)[C@H](CCC(=O)[*:2])N[*:1]; Stearoyl = CCCCCCCCCCCCCCCCCC(=O)*; Palmitoyl = CCCCCCCCCCCCCCCC(=O)*; Aib = CC(C)(N)C(=O)O

B1: SEQ ID NO: 21 (peptide)
peptide: Y[Aib]EGTFTSDLSIQK([γGlu-Stearoyl])ESRAAQEFIEWLKAGGPSSGAPPPS-NH2
modifications: N-terminus assumed
SMILES: CCCCCCCCCCCCCCCCCC(=O)N[C@@H](CCC(=O)NCCCC[C@H](NC(=O)[C@H](CCC(N)=O)NC(=O)[C@@H](NC(=O)[C@H](CO)NC(=O)[C@H](CC(C)C)NC(=O)[C@H](CC(=O)O)NC(=O)[C@H](CO)NC(=O)[C@@H](NC(=O)[C@H](Cc1ccccc1)NC(=O)[C@@H](NC(=O)CNC(=O)[C@H](CCC(=O)O)NC(=O)C(C)(C)NC(=O)[C@@H](N)Cc1ccc(O)cc1)[C@@H](C)O)[C@@H](C)O)[C@@H](C)CC)C(=O)N[C@@H](CCC(=O)O)C(=O)N[C@@H](CO)C(=O)N[C@@H](CCCNC(=N)N)C(=O)N[C@@H](C)C(=O)N[C@@H](C)C(=O)N[C@@H](CCC(N)=O)C(=O)N[C@@H](CCC(=O)O)C(=O)N[C@@H](Cc1ccccc1)C(=O)N[C@H](C(=O)N[C@@H](CCC(=O)O)C(=O)N[C@@H](Cc1c[nH]c2ccccc12)C(=O)N[C@@H](CC(C)C)C(=O)N[C@@H](CCCCN)C(=O)N[C@@H](C)C(=O)NCC(=O)NCC(=O)N1CCC[C@H]1C(=O)N[C@@H](CO)C(=O)N[C@@H](CO)C(=O)NCC(=O)N[C@@H](C)C(=O)N1CCC[C@H]1C(=O)N1CCC[C@H]1C(=O)N1CCC[C@H]1C(=O)N[C@@H](CO)C(N)=O)[C@@H](C)CC)C(=O)O
B2: SEQ ID NO: 23 (peptide)
peptide: Y[Aib]EGTFTSDLSIQK([γGlu-Palmitoyl])ESRAAQDFIEWLKNTGPSSGAPPPS-NH2
modifications: N-terminus assumed
SMILES: CCCCCCCCCCCCCCCC(=O)N[C@@H](CCC(=O)NCCCC[C@H](NC(=O)[C@H](CCC(N)=O)NC(=O)[C@@H](NC(=O)[C@H](CO)NC(=O)[C@H](CC(C)C)NC(=O)[C@H](CC(=O)O)NC(=O)[C@H](CO)NC(=O)[C@@H](NC(=O)[C@H](Cc1ccccc1)NC(=O)[C@@H](NC(=O)CNC(=O)[C@H](CCC(=O)O)NC(=O)C(C)(C)NC(=O)[C@@H](N)Cc1ccc(O)cc1)[C@@H](C)O)[C@@H](C)O)[C@@H](C)CC)C(=O)N[C@@H](CCC(=O)O)C(=O)N[C@@H](CO)C(=O)N[C@@H](CCCNC(=N)N)C(=O)N[C@@H](C)C(=O)N[C@@H](C)C(=O)N[C@@H](CCC(N)=O)C(=O)N[C@@H](CC(=O)O)C(=O)N[C@@H](Cc1ccccc1)C(=O)N[C@H](C(=O)N[C@@H](CCC(=O)O)C(=O)N[C@@H](Cc1c[nH]c2ccccc12)C(=O)N[C@@H](CC(C)C)C(=O)N[C@@H](CCCCN)C(=O)N[C@@H](CC(N)=O)C(=O)N[C@H](C(=O)NCC(=O)N1CCC[C@H]1C(=O)N[C@@H](CO)C(=O)N[C@@H](CO)C(=O)NCC(=O)N[C@@H](C)C(=O)N1CCC[C@H]1C(=O)N1CCC[C@H]1C(=O)N1CCC[C@H]1C(=O)N[C@@H](CO)C(N)=O)[C@@H](C)O)[C@@H](C)CC)C(=O)O
B3: SEQ ID NO: 25 (peptide)
peptide: Y[Aib]EGTFTSDLSIQK([γGlu-Palmitoyl])ESRAAQEFIEWLKNTGPSSGAPPPS-NH2
modifications: N-terminus assumed
SMILES: CCCCCCCCCCCCCCCC(=O)N[C@@H](CCC(=O)NCCCC[C@H](NC(=O)[C@H](CCC(N)=O)NC(=O)[C@@H](NC(=O)[C@H](CO)NC(=O)[C@H](CC(C)C)NC(=O)[C@H](CC(=O)O)NC(=O)[C@H](CO)NC(=O)[C@@H](NC(=O)[C@H](Cc1ccccc1)NC(=O)[C@@H](NC(=O)CNC(=O)[C@H](CCC(=O)O)NC(=O)C(C)(C)NC(=O)[C@@H](N)Cc1ccc(O)cc1)[C@@H](C)O)[C@@H](C)O)[C@@H](C)CC)C(=O)N[C@@H](CCC(=O)O)C(=O)N[C@@H](CO)C(=O)N[C@@H](CCCNC(=N)N)C(=O)N[C@@H](C)C(=O)N[C@@H](C)C(=O)N[C@@H](CCC(N)=O)C(=O)N[C@@H](CCC(=O)O)C(=O)N[C@@H](Cc1ccccc1)C(=O)N[C@H](C(=O)N[C@@H](CCC(=O)O)C(=O)N[C@@H](Cc1c[nH]c2ccccc12)C(=O)N[C@@H](CC(C)C)C(=O)N[C@@H](CCCCN)C(=O)N[C@@H](CC(N)=O)C(=O)N[C@H](C(=O)NCC(=O)N1CCC[C@H]1C(=O)N[C@@H](CO)C(=O)N[C@@H](CO)C(=O)NCC(=O)N[C@@H](C)C(=O)N1CCC[C@H]1C(=O)N1CCC[C@H]1C(=O)N1CCC[C@H]1C(=O)N[C@@H](CO)C(N)=O)[C@@H](C)O)[C@@H](C)CC)C(=O)O
B4: SEQ ID NO: 26 (peptide)
peptide: Y[Aib]EGTFTSDLSIQK([γGlu-Palmitoyl])EKRAAQEFIEWLKNTGPSSGAPPPS-NH2
modifications: N-terminus assumed
SMILES: CCCCCCCCCCCCCCCC(=O)N[C@@H](CCC(=O)NCCCC[C@H](NC(=O)[C@H](CCC(N)=O)NC(=O)[C@@H](NC(=O)[C@H](CO)NC(=O)[C@H](CC(C)C)NC(=O)[C@H](CC(=O)O)NC(=O)[C@H](CO)NC(=O)[C@@H](NC(=O)[C@H](Cc1ccccc1)NC(=O)[C@@H](NC(=O)CNC(=O)[C@H](CCC(=O)O)NC(=O)C(C)(C)NC(=O)[C@@H](N)Cc1ccc(O)cc1)[C@@H](C)O)[C@@H](C)O)[C@@H](C)CC)C(=O)N[C@@H](CCC(=O)O)C(=O)N[C@@H](CCCCN)C(=O)N[C@@H](CCCNC(=N)N)C(=O)N[C@@H](C)C(=O)N[C@@H](C)C(=O)N[C@@H](CCC(N)=O)C(=O)N[C@@H](CCC(=O)O)C(=O)N[C@@H](Cc1ccccc1)C(=O)N[C@H](C(=O)N[C@@H](CCC(=O)O)C(=O)N[C@@H](Cc1c[nH]c2ccccc12)C(=O)N[C@@H](CC(C)C)C(=O)N[C@@H](CCCCN)C(=O)N[C@@H](CC(N)=O)C(=O)N[C@H](C(=O)NCC(=O)N1CCC[C@H]1C(=O)N[C@@H](CO)C(=O)N[C@@H](CO)C(=O)NCC(=O)N[C@@H](C)C(=O)N1CCC[C@H]1C(=O)N1CCC[C@H]1C(=O)N1CCC[C@H]1C(=O)N[C@@H](CO)C(N)=O)[C@@H](C)O)[C@@H](C)CC)C(=O)O
B5: SEQ ID NO: 22 (peptide)
peptide: Y[Aib]EGTFTSDLSIQK([γGlu-Palmitoyl])DSRAAQDFIEWLKAGGPSSGAPPPS-NH2
modifications: N-terminus assumed
SMILES: CCCCCCCCCCCCCCCC(=O)N[C@@H](CCC(=O)NCCCC[C@H](NC(=O)[C@H](CCC(N)=O)NC(=O)[C@@H](NC(=O)[C@H](CO)NC(=O)[C@H](CC(C)C)NC(=O)[C@H](CC(=O)O)NC(=O)[C@H](CO)NC(=O)[C@@H](NC(=O)[C@H](Cc1ccccc1)NC(=O)[C@@H](NC(=O)CNC(=O)[C@H](CCC(=O)O)NC(=O)C(C)(C)NC(=O)[C@@H](N)Cc1ccc(O)cc1)[C@@H](C)O)[C@@H](C)O)[C@@H](C)CC)C(=O)N[C@@H](CC(=O)O)C(=O)N[C@@H](CO)C(=O)N[C@@H](CCCNC(=N)N)C(=O)N[C@@H](C)C(=O)N[C@@H](C)C(=O)N[C@@H](CCC(N)=O)C(=O)N[C@@H](CC(=O)O)C(=O)N[C@@H](Cc1ccccc1)C(=O)N[C@H](C(=O)N[C@@H](CCC(=O)O)C(=O)N[C@@H](Cc1c[nH]c2ccccc12)C(=O)N[C@@H](CC(C)C)C(=O)N[C@@H](CCCCN)C(=O)N[C@@H](C)C(=O)NCC(=O)NCC(=O)N1CCC[C@H]1C(=O)N[C@@H](CO)C(=O)N[C@@H](CO)C(=O)NCC(=O)N[C@@H](C)C(=O)N1CCC[C@H]1C(=O)N1CCC[C@H]1C(=O)N1CCC[C@H]1C(=O)N[C@@H](CO)C(N)=O)[C@@H](C)CC)C(=O)O
B6: SEQ ID NO: 24 (peptide)
peptide: Y[Aib]EGTFTSDLSIQK([γGlu-Palmitoyl])ESRAA[Aib]DFIEWLKNTGPSSGAPPPS-NH2
modifications: N-terminus assumed
SMILES: CCCCCCCCCCCCCCCC(=O)N[C@@H](CCC(=O)NCCCC[C@H](NC(=O)[C@H](CCC(N)=O)NC(=O)[C@@H](NC(=O)[C@H](CO)NC(=O)[C@H](CC(C)C)NC(=O)[C@H](CC(=O)O)NC(=O)[C@H](CO)NC(=O)[C@@H](NC(=O)[C@H](Cc1ccccc1)NC(=O)[C@@H](NC(=O)CNC(=O)[C@H](CCC(=O)O)NC(=O)C(C)(C)NC(=O)[C@@H](N)Cc1ccc(O)cc1)[C@@H](C)O)[C@@H](C)O)[C@@H](C)CC)C(=O)N[C@@H](CCC(=O)O)C(=O)N[C@@H](CO)C(=O)N[C@@H](CCCNC(=N)N)C(=O)N[C@@H](C)C(=O)N[C@@H](C)C(=O)NC(C)(C)C(=O)N[C@@H](CC(=O)O)C(=O)N[C@@H](Cc1ccccc1)C(=O)N[C@H](C(=O)N[C@@H](CCC(=O)O)C(=O)N[C@@H](Cc1c[nH]c2ccccc12)C(=O)N[C@@H](CC(C)C)C(=O)N[C@@H](CCCCN)C(=O)N[C@@H](CC(N)=O)C(=O)N[C@H](C(=O)NCC(=O)N1CCC[C@H]1C(=O)N[C@@H](CO)C(=O)N[C@@H](CO)C(=O)NCC(=O)N[C@@H](C)C(=O)N1CCC[C@H]1C(=O)N1CCC[C@H]1C(=O)N1CCC[C@H]1C(=O)N[C@@H](CO)C(N)=O)[C@@H](C)O)[C@@H](C)CC)C(=O)O

Molecular target: human glucagon receptor (human, UniProt P47871 26-477)
Experiment: cell-based or functional assay

human glucagon receptor, sequence (P47871 26-477): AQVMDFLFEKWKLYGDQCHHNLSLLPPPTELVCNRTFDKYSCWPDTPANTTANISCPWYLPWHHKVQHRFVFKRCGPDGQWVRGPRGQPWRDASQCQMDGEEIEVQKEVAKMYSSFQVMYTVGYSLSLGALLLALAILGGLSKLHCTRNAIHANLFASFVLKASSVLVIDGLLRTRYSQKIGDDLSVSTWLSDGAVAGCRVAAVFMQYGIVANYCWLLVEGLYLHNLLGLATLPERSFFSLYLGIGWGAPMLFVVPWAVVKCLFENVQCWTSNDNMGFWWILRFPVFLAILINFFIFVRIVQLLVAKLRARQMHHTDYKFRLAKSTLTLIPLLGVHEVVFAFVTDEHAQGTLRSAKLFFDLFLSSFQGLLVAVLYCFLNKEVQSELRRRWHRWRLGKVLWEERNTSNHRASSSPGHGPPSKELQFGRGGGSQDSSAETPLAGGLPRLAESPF

Binder | EC50 hGLUC R [pM]
B1 | 10100 pM
B2 | 19100 pM
B3 | 20500 pM
B4 | 8510 pM
B5 | 11600 pM
B6 | 38900 pM

Molecular target: T1, human GIP receptor (human, UniProt P48546 22-466)
T1 sequence (looked up): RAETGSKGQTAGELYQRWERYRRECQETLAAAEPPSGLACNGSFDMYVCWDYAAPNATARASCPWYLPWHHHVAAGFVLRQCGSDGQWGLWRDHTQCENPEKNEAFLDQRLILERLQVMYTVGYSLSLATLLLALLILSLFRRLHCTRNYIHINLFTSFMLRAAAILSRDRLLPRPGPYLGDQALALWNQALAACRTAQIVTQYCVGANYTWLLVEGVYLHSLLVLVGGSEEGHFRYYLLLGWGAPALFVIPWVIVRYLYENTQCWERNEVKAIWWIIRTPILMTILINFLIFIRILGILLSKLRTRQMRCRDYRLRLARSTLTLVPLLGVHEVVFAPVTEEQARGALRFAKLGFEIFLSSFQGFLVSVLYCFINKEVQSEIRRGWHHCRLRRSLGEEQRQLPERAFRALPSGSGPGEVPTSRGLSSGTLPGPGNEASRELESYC
Experiment: cell-based or functional assay

Binder | EC50 hGIP R [pM]
B1 | 6.4 pM
B2 | 79.5 pM
B3 | 73.6 pM
B4 | 19.7 pM
B5 | 16.6 pM
B6 | 23.5 pM

Molecular target: human GLP-1 receptor (human, UniProt P43220 24-463)
Experiment: cell-based or functional assay

Binder | EC50 hGLP-1 R [pM]
B1 | 4.8 pM
B2 | 11.8 pM
B3 | 9.5 pM
B4 | 4.9 pM
B5 | 32 pM
B6 | 13.5 pM
